Measured values: patent US11091559B2, “Anti-ALK antibodies and methods for use thereof” (Celldex Therapeutics, Inc., priority 2015, dated 2021)

How the values were obtained:
[1] = tested on: ALK (basal phosphorylation in NB1 cells); assay: Western blot of ALK phosphorylation in NB1 cells; assay type: cell-based, human; conditions: effect in words
Procedure: Lysed cells were subjected to SDS-PAGE, transferred to nitrocellulose and immunoblotted with antibodies against total, and phospho-specific ALK, AKT, and MAPK. FIG. 4B depicts an ELISA of NB1 cells grown in media with reduced serum and treated with 30-100 nM of each antibody for 1-2 hours. Cell lysates were incubated on ELISA plates with an anti-ALK antibody, followed by incubation with a pan phosphotyrosine antibody coupled to HRP.
Cell lysates were subjected to SDS-PAGE and transferred to nitrocellulose. Immunoblotting was performed with antibodies against total, and phospho-specific ALK, AKT, and MAPK (purchased from Cell Signaling and utilized per manufacturer's instructions). HRP (horse radish peroxidase)-conjugated secondary antibodies (Thermo Scientific, Waltham, Mass.) were used along with Supersignal West Pico Chemiluminescent Substrate (Thermo Scientific, Waltham, Mass.) to image blots.
Anti-ALK monoclonal antibodies generated in Example 1 were evaluated via Western blotting for their ability to activate or inhibit basal levels of ALK phosphorylation in NB1 cells (FIG. 4A). A subset of ALK antibodies stimulated ALK tyrosine phosphorylation and a different subset of antibodies inhibited basal levels of ALK phosphorylation. See also Table 18, below. […] That is, ALK antibodies that stimulated ALK tyrosine phosphorylation increased MAPK and AKT phosphorylation, whereas ALK antibodies that inhibited ALK tyrosine phosphorylation decreased basal levels of MAPK and AKT phosphorylation (FIG. 4A). Similar results were obtained in ELISA-based ALK phosphorylation assays from lysates of NB1 cells treated with ALK antibodies (FIG. 4B).

[2] = biological target: murine ALK (purified mouse ALK antigen) (Mus musculus, UniProt P97793); assay: Mouse ALK cross-reactivity, solid-state ELISA; assay type: binding; set-up: key: − none; + weak; ++ moderate; +++ strong; conditions: cross-reactivity with murine ALK
Sequence of murine ALK (purified mouse ALK antigen) (P97793 19-1042 limits assumed): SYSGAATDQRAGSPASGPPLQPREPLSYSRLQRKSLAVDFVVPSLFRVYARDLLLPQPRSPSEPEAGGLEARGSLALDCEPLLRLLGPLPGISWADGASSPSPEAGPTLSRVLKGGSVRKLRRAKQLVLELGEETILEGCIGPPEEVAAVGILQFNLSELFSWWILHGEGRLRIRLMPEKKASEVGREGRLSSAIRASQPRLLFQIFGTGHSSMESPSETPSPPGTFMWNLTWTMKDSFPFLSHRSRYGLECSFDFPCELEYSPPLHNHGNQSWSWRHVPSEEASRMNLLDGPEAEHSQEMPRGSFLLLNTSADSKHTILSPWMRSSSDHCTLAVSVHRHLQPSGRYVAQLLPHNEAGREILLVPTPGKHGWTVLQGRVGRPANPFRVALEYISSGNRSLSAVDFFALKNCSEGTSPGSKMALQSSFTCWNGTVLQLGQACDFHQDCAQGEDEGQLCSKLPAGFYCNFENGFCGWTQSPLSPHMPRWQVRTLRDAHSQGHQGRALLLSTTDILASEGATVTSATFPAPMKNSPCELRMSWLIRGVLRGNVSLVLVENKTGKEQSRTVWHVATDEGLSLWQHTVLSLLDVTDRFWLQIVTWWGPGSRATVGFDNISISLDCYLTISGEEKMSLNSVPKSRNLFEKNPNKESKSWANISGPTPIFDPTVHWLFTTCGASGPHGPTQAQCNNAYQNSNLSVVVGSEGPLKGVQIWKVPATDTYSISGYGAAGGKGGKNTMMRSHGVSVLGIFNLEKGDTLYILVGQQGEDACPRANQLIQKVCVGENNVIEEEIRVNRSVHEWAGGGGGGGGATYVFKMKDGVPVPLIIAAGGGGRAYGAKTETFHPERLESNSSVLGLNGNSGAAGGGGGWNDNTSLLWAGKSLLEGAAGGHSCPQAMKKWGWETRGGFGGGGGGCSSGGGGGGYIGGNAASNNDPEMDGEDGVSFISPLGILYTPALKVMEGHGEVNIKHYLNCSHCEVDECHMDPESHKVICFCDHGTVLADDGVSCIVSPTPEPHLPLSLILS
Procedure: Purified mAbs were evaluated for their ability to bind murine ALK by solid-state ELISA, or flow cytometry on Neuro-2a cells that express low levels of endogenous murine ALK. […]

[3] = biological target: C-terminal region of human ALK ECD (T637-S1038) (Homo sapiens, UniProt Q9UM73); assay: Competitive binding assay (epitope binning) by flow cytometry; conditions: antibodies to the C-terminal region
Sequence of C-terminal region of human ALK ECD (T637-S1038) (Q9UM73 19-1620): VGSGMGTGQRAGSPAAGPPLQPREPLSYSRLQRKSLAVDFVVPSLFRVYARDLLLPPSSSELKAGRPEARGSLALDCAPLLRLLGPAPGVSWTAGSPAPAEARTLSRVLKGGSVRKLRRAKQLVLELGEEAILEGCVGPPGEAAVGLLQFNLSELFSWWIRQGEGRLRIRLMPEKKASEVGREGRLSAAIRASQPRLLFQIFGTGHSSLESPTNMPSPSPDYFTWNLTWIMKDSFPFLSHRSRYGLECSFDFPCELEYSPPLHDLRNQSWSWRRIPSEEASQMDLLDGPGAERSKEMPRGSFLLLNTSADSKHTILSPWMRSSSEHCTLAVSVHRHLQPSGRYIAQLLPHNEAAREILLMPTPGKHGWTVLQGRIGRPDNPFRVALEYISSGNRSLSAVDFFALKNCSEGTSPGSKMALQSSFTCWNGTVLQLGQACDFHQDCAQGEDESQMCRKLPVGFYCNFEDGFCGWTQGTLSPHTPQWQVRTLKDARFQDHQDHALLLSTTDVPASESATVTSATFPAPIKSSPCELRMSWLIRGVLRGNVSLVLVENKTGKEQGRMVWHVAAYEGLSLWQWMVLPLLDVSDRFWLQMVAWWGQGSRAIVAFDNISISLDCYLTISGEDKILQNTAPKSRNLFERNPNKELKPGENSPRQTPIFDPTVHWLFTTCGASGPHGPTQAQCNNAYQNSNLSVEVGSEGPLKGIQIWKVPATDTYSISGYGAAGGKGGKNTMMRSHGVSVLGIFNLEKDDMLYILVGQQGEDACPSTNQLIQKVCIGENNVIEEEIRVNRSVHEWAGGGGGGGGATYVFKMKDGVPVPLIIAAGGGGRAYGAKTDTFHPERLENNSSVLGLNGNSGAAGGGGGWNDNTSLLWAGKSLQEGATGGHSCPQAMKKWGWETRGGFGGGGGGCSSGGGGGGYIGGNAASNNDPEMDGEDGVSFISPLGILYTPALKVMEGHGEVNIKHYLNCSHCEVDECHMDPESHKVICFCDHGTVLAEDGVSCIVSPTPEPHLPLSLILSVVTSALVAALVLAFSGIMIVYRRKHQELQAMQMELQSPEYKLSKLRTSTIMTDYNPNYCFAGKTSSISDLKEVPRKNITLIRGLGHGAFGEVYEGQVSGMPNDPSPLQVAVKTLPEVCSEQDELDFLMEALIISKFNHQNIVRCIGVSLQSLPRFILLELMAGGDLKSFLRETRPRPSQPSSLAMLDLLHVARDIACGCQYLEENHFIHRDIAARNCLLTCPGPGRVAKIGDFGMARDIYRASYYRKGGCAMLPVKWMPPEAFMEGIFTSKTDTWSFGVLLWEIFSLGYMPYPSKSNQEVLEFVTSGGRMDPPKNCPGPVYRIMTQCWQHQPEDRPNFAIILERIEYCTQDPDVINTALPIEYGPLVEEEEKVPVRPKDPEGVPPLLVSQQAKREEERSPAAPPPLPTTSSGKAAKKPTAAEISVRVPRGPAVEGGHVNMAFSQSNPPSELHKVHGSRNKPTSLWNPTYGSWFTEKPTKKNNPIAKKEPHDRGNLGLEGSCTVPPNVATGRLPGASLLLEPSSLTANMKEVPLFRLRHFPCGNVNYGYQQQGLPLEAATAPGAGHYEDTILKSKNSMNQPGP
Procedure: Antibodies that bind to the C-terminal region of human ALK ECD (T637-S1038) were further characterized using a competitive binding assay. A pairwise matrix approach was used whereby each antibody was fluorescently labeled and tested for its ability to bind to ALK-expressing cells pre-incubated with an unlabeled antibody. The ability of both antibodies to bind the C-terminal domain simultaneously was tested via flow cytometry. If both antibodies bound simultaneously, they were put into different bins and considered to belong to a separate epitope class.

[4] = tested on: ALK (total protein levels in NB1 cells); assay: ALK turnover (total protein levels) by Western blot, 24 hour treatment of NB1 cells; assay type: cell-based, human; set-up: key: − none; + weak; ++ moderate; +++ strong
Text: FIG. 5 depicts a Western blot of a panel of ALK antibodies.
See also Table 18, below.

[5] = biological target: human ALK (hALK, purified ALK protein) (Homo sapiens, UniProt Q9UM73); assay: Monovalent affinity of humanized antibodies, BLitz System, human ALK; assay type: binding; conditions: BLitz, purified ALK protein at 70 μg/mL, single binding site fit; antibody by plate position of Table 19
Sequence of human ALK (hALK, purified ALK protein) (Q9UM73 with tags, fused parts or gaps): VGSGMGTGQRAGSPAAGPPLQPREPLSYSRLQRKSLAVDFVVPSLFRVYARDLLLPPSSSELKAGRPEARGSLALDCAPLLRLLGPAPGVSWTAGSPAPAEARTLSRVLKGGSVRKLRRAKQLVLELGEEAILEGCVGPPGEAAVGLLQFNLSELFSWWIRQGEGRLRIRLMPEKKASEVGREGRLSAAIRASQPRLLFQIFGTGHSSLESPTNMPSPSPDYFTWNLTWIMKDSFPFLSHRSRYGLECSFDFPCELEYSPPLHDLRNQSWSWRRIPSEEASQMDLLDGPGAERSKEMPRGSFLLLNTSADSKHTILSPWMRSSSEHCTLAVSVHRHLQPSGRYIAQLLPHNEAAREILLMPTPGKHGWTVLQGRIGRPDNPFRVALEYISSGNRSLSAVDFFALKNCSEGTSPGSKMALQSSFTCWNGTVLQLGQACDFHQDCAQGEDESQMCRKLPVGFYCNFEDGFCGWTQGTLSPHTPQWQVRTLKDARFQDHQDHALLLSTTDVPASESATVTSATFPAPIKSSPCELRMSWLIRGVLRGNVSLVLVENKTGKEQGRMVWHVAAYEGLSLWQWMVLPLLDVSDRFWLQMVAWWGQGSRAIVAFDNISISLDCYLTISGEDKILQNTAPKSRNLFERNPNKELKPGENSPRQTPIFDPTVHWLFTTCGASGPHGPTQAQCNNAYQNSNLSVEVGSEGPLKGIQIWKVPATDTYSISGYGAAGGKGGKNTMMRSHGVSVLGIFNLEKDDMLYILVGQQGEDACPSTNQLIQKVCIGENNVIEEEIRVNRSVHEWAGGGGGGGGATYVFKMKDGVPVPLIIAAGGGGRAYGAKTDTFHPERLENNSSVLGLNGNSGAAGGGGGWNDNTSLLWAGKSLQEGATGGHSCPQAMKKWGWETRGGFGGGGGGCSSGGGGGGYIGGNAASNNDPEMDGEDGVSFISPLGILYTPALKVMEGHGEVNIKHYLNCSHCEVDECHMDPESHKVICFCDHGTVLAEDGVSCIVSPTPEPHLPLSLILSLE
Procedure: The humanized ALK antibodies designed in Example 1 were tested for monovalent affinity, wherein the kinetic data are fit to a single binding site equation to obtain relative affinity values.
Kinetic measurements of the monovalent affinity of the 96 humanized ALK antibody variants (Ab351-Ab446) were collected. Affinity ranking was performed using a BLitz® System (ForteBio, Menlo Park, Calif.). Humanized anti-ALK antibodies were immobilized at 0.5 mg/mL using Protein A tips. Once baseline stability was ensured, purified ALK proteins at 70 μg/mL were added. The resulting kinetic data were fit to a single binding site equation, from which the quoted monovalent KD values were derived.
Amino acid residues that differ between rat ALK and mouse ALK are boxed. KD values for both NB1 (human) cells and Neuro2a (mouse) cells were also determined.

mouse ALK binding [2]	Bin/Domain (bin) [3]	Kd [5]	Molecule	ALK phosphorylation [1]	ALK turnover [4]
+			Ab332: anti-ALK monoclonal antibody; VL SEQ ID NO: 419, VH SEQ ID NO: 420 (antibody, V domains shown, VH domain - Ab332; VL domain - Ab332) VH: EVQLQQSGPELVKPGTSVKISCKASGYTFTDYYMNWMKQSHGKSLEWIGDINPNNGVTSYNQKFKGKATLTVDKSSSTAYMELRSLTSEDSAVYYCAREDYGSNYFDYWGQGTTLTVSS VL: DIVLTQSPASLAVSLGQRATISCKASQSVDYDGDSYMNWYQQKPGQPPKLLIYAASNLESGIPARLSGSGSGTDFTLNIHPVEEEDAATYYCQQSNEDPPTFGGGTKLEIRR	weak agonist	
−			Ab331: anti-ALK monoclonal antibody; VL SEQ ID NO: 417, VH SEQ ID NO: 418 (antibody, V domains shown, VH domain - Ab331; VL domain - Ab331) VH: EVQVVETGGGVVQPGKSLEITCATSGLTFSTAWMYWVRQSSDRRLEWIARIKDKSNNFASDYVESVRGRFTISRDDSRSSVYLQMNNLKEEDTATYYCTTSYGYAWGQGVMVTVSS VL: DIQMTQSPSSMSASLGDRITITCQASQDIGNYLIWFQQKPGKSPRPLIYYATNLANGVPSRFSGSRSGSEYSLTITSLESEDMADYHCLQYKQHLTFGSGTKLEIER	inhibitor	
		6.08 mM	Ab437: humanized anti-ALK antibody; VL SEQ ID NO: 428, VH SEQ ID NO: 431 (antibody, V domains shown, VH domain - Ab353; VL domain - Ab435) VH: EVQLVQSGAEVKKPGTSVKLSCKASGYTFTSSAMQWVKQAPGQGLEWIGYIKPSSGYTKYNQKFKDKATLTADKSTSTAYMELSSLRSEDTAVYYCARDYYGSSSWFAYWGQGTLVTVSS VL: EIVMTQSQATMSTSVGERATLSCKASQNVGTNVAWYQQKPGQSPKALIYGASTRATGVPARFSGSGSGTDFTLTISSVEPEDFAVYYCQQYNSYPYMYTFGQGTKLEIK		

Further lines, the molecule ahead of its results:

Molecule	mouse ALK binding [2]	Bin/Domain (bin) [3]	Kd [5]	ALK phosphorylation [1]	ALK turnover [4]
Ab320: anti-ALK monoclonal antibody; VL SEQ ID NO: 395, VH SEQ ID NO: 396 (antibody, V domains shown, VH domain - Ab320; VL domain - Ab320) VH: QVQLQQSGAELVKPGASVKISCKASGYAFSSYWMNWVKQRPGKGLEWIGQIYPGDGDTNYNGKFKGKATLTADKSSSTAYMQLSSLTSEDSAVYFCASYYYGSKAYWGQGTLVTVSA VL: DIQMTQSPASLAASVGETVTITCRASENIYYSLAWYQQKQGKSPQLLIYNANSLEDGVPSRFSGSGSGTQYSMKINSMQPEDTATYFCKQAYDVPFTFGSGTKLEIKR	++	1		no effect	−
Ab330: anti-ALK monoclonal antibody; VL SEQ ID NO: 415, VH SEQ ID NO: 416 (antibody, V domains shown, VH domain - Ab330; VL domain - Ab330) VH: EVQVVETGGGVVQPGKSLEITCATSGLTFSTAWMYWVRQSSDRRLEWIARIKDKSNKFASDYVESVRGRFTISRDDSRSSVYLQMNNLKEEDTATYYCTTSYGYAWGQGVMVTVSS VL: DIQMTQSPSSMSASLGDRVTITCQASQDIGNYLIWFQQKPGKSPRPLIYYATNLANGVPSRFSGSRSGSEYSLTITSLESEDMADYHCLQYKQHLTFGSGTKLEIER	+			inhibitor	
Ab325: anti-ALK monoclonal antibody; VL SEQ ID NO: 405, VH SEQ ID NO: 406 (antibody, V domains shown, VH domain - Ab325; VL domain - Ab325) VH: QVQLQQSGAELVKPGASVKISCKASGYAFSSYWMNWVKQRPGKGLEWIGQIYPGDGDTNYNGKFKGKATLTADKSSSTAYMQLSSLTSEDSAVYFCARWYYGSYYAMDYWGQGTSVTVSS VL: DIQMTQTTSSLSASLGDRVTISCRASQDISNYLNWYQQKPDGTVKLLIYYTSRLHSGVPSRFSGSGSGTDYSLTISNLEQEDIATYFCQQGNTLPRTFGGGTKLEIKR	+	1			++
Ab329: anti-ALK monoclonal antibody; VL SEQ ID NO: 413, VH SEQ ID NO: 414 (antibody, V domains shown, VH domain - Ab329; VL domain - Ab329) VH: QVQLKESGPGLVKPSATLSLTCTVSGFSLTSYHVCWIRQTPGKGLEWMGVIWGDGRTTYNPPLKSRLSISRDTSKSQVFLKMSSLKTEDTATYYCARATMTGHGDAWGQGASVTVSS VL: DIQMTQSPASLSASLEEIVTITCQASQDIDNYLSWYQQKPGKSPHLLIHSATSLADGVPSRFSGGRSGTQFSLKINRLQVEDTGIYYCLQHYSGWTFGGGTKLELKR	+++			weak agonist	
Ab322: anti-ALK monoclonal antibody; VL SEQ ID NO: 399, VH SEQ ID NO: 400 (antibody, V domains shown, VH domain - Ab322; VL domain - Ab322) VH: QVQLQQSGAELAKPGASVKLSCKASGYTFTNYWMHWVKQRPGQGLEWIGYINPSSGYTKYNQKFKDKATLTADKSSSTAYMQLSSLTYEDSAVYYCARDYYGSSSWFAYWGQGTLVTVSA VL: DIVMTQSQRFMSTSVGDRVSVTCKASQNVGTNVAWYQQKPGQSPKALIYSASYRYSGVPDRFTGSGSGTDFTLTVSNVQSEDLAEYFCQQYNSYPYMYTFGGGTKLEIKR	−	2		inhibitor	−
Ab328: anti-ALK monoclonal antibody; VL SEQ ID NO: 411, VH SEQ ID NO: 412 (antibody, V domains shown, VH domain - Ab328; VL domain - Ab328) VH: QVQLQQSGAELAKPGASVKLSCKASGYTFTSYWMHWVKQRPGQGLEWIGYINPSSGYTKYNQKFKDKATLTADKSSSTAYMQLSSLTFEDSAVYYCARDYYGSSSWFAYWGQGTLVTVSA VL: DIVMTQSQKFMSTSVGDRVSVTCKASQNVGTNVAWYQQKPGHSPKALIYSASYRYSGVPDRFTGSGSGTDFTLTISNVQSEDLAEYFCQRYNSYPYMFTFGGGTKLEIKR	+++	2		weak agonist	+++
